± gives the standard deviation.

The data set can be described thus: protein stability index of a GFP-peptide fusion (GPS, HEK-293T) (PSI 1-6); higher = more stable.
Setting [1] is: treatment: DMSO, c terminus: a fixed tail appended.
The mark [2] stands for this setting: treatment: MLN4924 1 uM, 8 h, c terminus: a fixed tail appended.
Where [3] appears, read: treatment: DMSO, c terminus: native.
The mark [4] stands for this setting: treatment: MLN4924 1 uM, 8 h, c terminus: native.
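Further: 24-mer peptide tiles fused after GFP, lentivirally expressed, FACS-sorted into six equal bins by GFP/DsRed ratio, decoded by Illumina sequencing, PSI is the read-weighted mean bin number.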

GILRRILRTLRDFPAEERARVLDR [ANKRD9] had a protein stability index under setting [1] of 2.39 ± 0.28 and a protein stability index under setting [2] of 2.47 ± 0.65.

With GIVESIQIMKEGKATASEAVDCKW [NETO1], the protein stability index reads like this: under setting [1], 3.71 ± 1.3; under setting [2], 3.99 ± 0.2.

Take GIVLQGPALCFAAAIFSLFFVPLS [TMEM175]: the protein stability index runs as follows: under setting [1], 2.89 ± 0.34; under setting [2], 2.83 ± 0.17.

Regarding GKAYGWCSELIRHRRVHARKEPSH [ZNF232], the protein stability index is, setting by setting: under setting [1], 3.23 ± 0.17; under setting [2], 3.26 ± 0.38.

In the case of GKKKISKADIGAPSGFKHVSHVGW [WAS], the protein stability index was found to be 3.06 ± 0.24 under setting [1] and 3.1 ± 0.15 under setting [2].

Regarding GKKQEYLENRIQREIALAKKHGTQ [CHMP4C], the protein stability index was found to be 3.92 ± 0.35 under setting [1] and 4.13 ± 0.14 under setting [2].

With GKTFKQSSNLGQHQRIHTGEKPFE [ZNF232], the protein stability index is 4.46 ± 0.41 under setting [1] and 4.48 ± 0.17 under setting [2].

Take GLRAATMSAVEAATCRAKELSRK [PYCR3]: the protein stability index under setting [3] was 5.1 ± 0.95 and the protein stability index under setting [4] turned out to be 4.97 ± 0.18.

Consider GLSQAPQPLADEGPPGRSIGGAAP [SERTAD1], for which the protein stability index by setting is: under setting [1], 5.05 ± 0.31; under setting [2], 5.29 ± 0.21.

GMAFFKMREMFFEDHIDDAKYCGH [CNOT7] yielded a protein stability index under setting [1] of 2.35 ± 0.2 and a protein stability index under setting [2] of 2.36 ± 0.16.

For GMVTRCIIEVLSNALSKSSAPPIT [CHGB], the protein stability index reads like this: under setting [1], 3.07 ± 0.29; under setting [2], 3.08 ± 0.23.

Turning to GNATLLRIIYQNKCMRNGPNALIA [EDNRA], the protein stability index is 2.66 ± 0.79 under setting [1] and 2.51 ± 0.32 under setting [2].

Consider GNDFTQNAGTGLVINQADVRNNRS [PLD5], for which the protein stability index worked out at 4.58 ± 0.35 under setting [1] and 4.55 ± 0.35 under setting [2].

On to GNFPTMEVKPKDIIHVVKDQLIGQ [TENT5D], for which the protein stability index runs as follows: under setting [1], 4.08 ± 0.33; under setting [2], 3.98 ± 0.35.

GNLQLDCLAQGWKQYQQRAFGWFR [RTP4] came in with a protein stability index under setting [1] of 2.3 ± 0.5 and a protein stability index under setting [2] of 2.24 ± 0.23.

As for GPGPQLRRGWRPSSREDSLEAGLP [CHGA], the protein stability index came to 3.86 ± 0.14 under setting [1] and 4.24 ± 0.31 under setting [2].

GPHEAFNKLWELCCQWLKPKMRSK [ZNF449]: the protein stability index under setting [1] was found to be 2.67 ± 0.88 and the protein stability index under setting [2] turned out to be 2.99 ± 0.71.

Regarding GPVGTDFKPLNSTPATTTEPPKPT [ZNF207], the protein stability index under setting [1] came out at 5.24 ± 0.21 and the protein stability index under setting [2] turned out to be 5.19 ± 0.23.

GQALLTHLYQSSARRYAGPLHHQT [ELAVL3]: the protein stability index turned out to be 2.4 ± 0.14 under setting [1] and 2.71 ± 0.097 under setting [2].

Turning to GRHLELANQKLSEKLAAGALPHIN [CCDC3], the protein stability index under setting [1] turned out to be 3.46 ± 0.42 and the protein stability index under setting [2] came to 3.79 ± 0.36.

With GRTHQWKPLYPDDYVHISSKPCDL [ADAMTSL2], the protein stability index reads like this: under setting [1], 3.25 ± 0.3; under setting [2], 3.42 ± 0.093.

Take GRVLLANSTQADEGKTKKGVLEAP [FBXO34]: the protein stability index was 5.01 ± 0.17 under setting [1] and 4.9 ± 0.13 under setting [2].

Sequence GSNEYTEGPSVVKRPAPRTAPRQE [SPRY1] yielded a protein stability index under setting [1] of 4.9 ± 0.28 and a protein stability index under setting [2] of 5.3 ± 0.17.

Take GSNLDDAKGLAESLELPKAIQDQL [FANCE]: the protein stability index is, setting by setting: under setting [1], 5.08 ± 0.53; under setting [2], 5.3 ± 0.33.

As for GSSRSPGSKARAEGRGPVTPLHLD [PLEKHN1], the protein stability index is, setting by setting: under setting [1], 4.91 ± 0.16; under setting [2], 4.74 ± 0.21.

In the case of GTDRIVKIWDMTPVVGCSLATGFS [WDFY1], the protein stability index reads like this: under setting [1], 2.66 ± 0.16; under setting [2], 2.79 ± 0.48.

Regarding GTELIQTPLASSTDHQTPPTSPVQ [HDAC6], the protein stability index turned out to be 5.11 ± 0.33 under setting [1] and 5.25 ± 0.29 under setting [2].

For GTFCSLDICLAQLEELGTLNVFQT [PTPN9], the protein stability index turned out to be 2.93 ± 0.92 under setting [1] and 2.24 ± 0.46 under setting [2].

In the case of GTVHCQIVSTQITRPSGNNGNRRR [PHTF1], the protein stability index under setting [1] stood at 4.25 ± 0.18 and the protein stability index under setting [2] is 4.51 ± 0.21.

In the case of GVRESETEQGFGEDLEDLGAVAPP [NFE2L1], the protein stability index was 5.763 ± 0.026 under setting [1] and 5.9 ± 0.1 under setting [2].

GVYSMPAGTKVFEVPEMSPVTCCD [TLE6]: the protein stability index is, setting by setting: under setting [1], 3.84 ± 0.33; under setting [2], 3.45 ± 0.24.

In the case of HAGEHLLLGATKRSMVFKDVLLLG [HNF4A], the protein stability index reads like this: under setting [1], 2.26 ± 0.33; under setting [2], 2.35 ± 0.4.

For HCPDCGQQWFPSLELGHWLYQTEL [TOR1AIP2], the protein stability index worked out at 2.31 ± 0.57 under setting [1] and 2.52 ± 0.41 under setting [2].

With HCRKCGQAVCGKCSSKRSSYPVMG [WDFY1], the protein stability index turned out to be 3.88 ± 0.3 under setting [1] and 3.91 ± 0.34 under setting [2].

Regarding HFSQGSALILHQRIHSGEKPYGCV [ZNF24], the protein stability index is, setting by setting: under setting [1], 2.24 ± 0.37; under setting [2], 2.55 ± 0.47.

Take HFSQIVIFMLCTLVLAIPLLLILV [OR10K2]: the protein stability index is, setting by setting: under setting [1], 2.24 ± 0.25; under setting [2], 2.25 ± 0.19.

With HGNSGHPLVLSYIDLSAWCYYCQA [HDAC6], the protein stability index by setting is: under setting [1], 2.73 ± 0.55; under setting [2], 3.14 ± 0.58.

Consider HHREGLLAIFKSGGIPALVKMLGS [CTNNB1], for which the protein stability index runs as follows: under setting [1], 2.82 ± 0.39; under setting [2], 2.71 ± 0.64.

On to HHSRGNTNKFYMLDSRSTDRVLQW [KLHDC2], for which the protein stability index under setting [1] was determined as 2.65 ± 0.39 and the protein stability index under setting [2] worked out at 2.72 ± 0.19.

For HITKLKPWSLFDVLVEKYGWPHED [SRPK2], the protein stability index under setting [1] amounted to 2.23 ± 0.33 and the protein stability index under setting [2] is 2.38 ± 0.11.

Take HKVKAEEEKKAKVAPPAKQAQQKK [BRD3]: the protein stability index runs as follows: under setting [1], 5.5 ± 0.22; under setting [2], 5.5 ± 0.29.

Take HLFAGAEVILLVVMAYDRYMAICK [OR4A15]: the protein stability index by setting is: under setting [1], 2.67 ± 0.29; under setting [2], 3.02 ± 0.68.

Regarding HLYAEPQKSPWCEARSLEHTLPVN [ESR2], the protein stability index under setting [1] came out at 2.93 ± 0.23 and the protein stability index under setting [2] was determined as 3.38 ± 0.24.

Turning to HLYQSSARRYAGPLHHQTQRFRLD [ELAVL3], the protein stability index is, setting by setting: under setting [1], 2.99 ± 0.18; under setting [2], 3.05 ± 0.32.

As for HNQIAIYAHQPRTADEIPMEPGDI [FUT8], the protein stability index is, setting by setting: under setting [1], 4.6 ± 0.19; under setting [2], 4.52 ± 0.18.

On to HNRKKHLNGLQHLKAKKVWYDMFR [ZMAT5], for which the protein stability index reads like this: under setting [1], 2.22 ± 0.44; under setting [2], 2.38 ± 0.27.

Regarding HNSGPPPPPARGRGAPPPPPSRAP [WASL], the protein stability index is 5.25 ± 0.29 under setting [1] and 5.06 ± 0.15 under setting [2].

As to HNTVKLGAFQAQEKELVFDIDMTD [PRIM1], the protein stability index by setting is: under setting [1], 4.22 ± 0.19; under setting [2], 4.52 ± 0.28.

On to HPLAQNERCLHMFLQEEAIDRNYV [SNX12], for which the protein stability index turned out to be 3.17 ± 0.4 under setting [1] and 3.18 ± 0.28 under setting [2].

In the case of HQRKYTQSFCGENIMMPMGGMMPP [ZNF207], the protein stability index by setting is: under setting [1], 2.34 ± 0.15; under setting [2], 2.49 ± 0.16.

In the case of HRDMKPDNILLDEHDTWLSYKSH [STK32A], the protein stability index by setting is: under setting [3], 3.68 ± 0.27; under setting [4], 3.94 ± 0.27.

On to HRSSRETRDYAPPSRGHAYRDYGH [RBMY1A1], for which the protein stability index by setting is: under setting [1], 3.87 ± 0.18; under setting [2], 3.92 ± 0.17.

Consider HSFELDEKALASILLQDHIRDLDV [ATL3], for which the protein stability index was determined as 3.26 ± 0.33 under setting [1] and 3.26 ± 0.29 under setting [2].
